Tests used:
[1] = Phase I: plasma pharmacokinetics (non-compartmental analysis); assay type: in vivo, human; details: for AUC0-t / Cmax / Thalf: mean; for AUC0-t / Cmax / Thalf / Tmax: plasma, first dose of cycle; for Tmax: median
Description: Plasma PK parameters for AB-16B5 were derived from the concentration-time profiles following the first dose of Cycle 1 and the first dose of Cycle 2 using a non-compartmental analysis (NCA) with Phoenix WinNonlin.

[2] = Non-clinical toxicity, weekly administration, monkeys; assay type: in vivo, Rhesus monkeys
Description: Consequently, they were not considered to be toxicologically significant.

[3] = tested on: advanced solid malignancy; test: Phase I study AB-16B5-101: tumor response (RECIST); assay type: in vivo, human; details: RECIST-evaluable population (14 subjects); 1.5-12.0 mg/kg

In the case of “AB-16B5: humanized IgG2 monoclonal antibody targeting sCLU; light chain SEQ ID NO:11, heavy chain SEQ ID NO:12”, the AUC0-t ([1]; Cycle 1, 1.5 mg/kg (N = 1)) is reported as 230,321 ng*h/mL, the Cmax ([1]; Cycle 1, 1.5 mg/kg (N = 1)) is reported as 17,958 ng/mL and the Thalf ([1]; Cycle 1, 1.5 mg/kg (N = 1)) is reported as 9.35 h. For the same substance, the Tmax ([1]; Cycle 1, 1.5 mg/kg (N = 1)) was 1.17 h, the AUC0-t ([1]; Cycle 1, 3.0 mg/kg (N = 1)) was 645,602 ng*h/mL and the Cmax ([1]; Cycle 1, 3.0 mg/kg (N = 1)) was 50,736 ng/mL. The Thalf ([1]; Cycle 1, 3.0 mg/kg (N = 1)) was 7.39 h, the Tmax ([1]; Cycle 1, 3.0 mg/kg (N = 1)) was 1.08 h and the AUC0-t ([1]; Cycle 1, 6.0 mg/kg (N = 3)) was 1,357,773 ng*h/mL. The Cmax ([1]; Cycle 1, 6.0 mg/kg (N = 3)) was 117,663 ng/mL, the Thalf ([1]; Cycle 1, 6.0 mg/kg (N = 3)) was 6.99 h and the Tmax ([1]; Cycle 1, 6.0 mg/kg (N = 3)) was 1.00 h. The AUC0-t ([1]; Cycle 1, 9.0 mg/kg (N = 3)) was 2,083,091 ng*h/mL, the Cmax ([1]; Cycle 1, 9.0 mg/kg (N = 3)) was 162,103 ng/mL and the Thalf ([1]; Cycle 1, 9.0 mg/kg (N = 3)) was 10.78 h. For the same substance, the Tmax ([1]; Cycle 1, 9.0 mg/kg (N = 3)) was 2.00 h, the AUC0-t ([1]; Cycle 1, 12.0 mg/kg (N = 7)) was 4,045,786 ng*h/mL and the Cmax ([1]; Cycle 1, 12.0 mg/kg (N = 7)) was 256,977 ng/mL. The Thalf ([1]; Cycle 1, 12.0 mg/kg (N = 7)) was 11.99 h, the Tmax ([1]; Cycle 1, 12.0 mg/kg (N = 7)) was 1.12 h and the AUC0-t ([1]; Cycle 2, 1.5 mg/kg (N = 1)) was 188,584 ng*h/mL. The Cmax ([1]; Cycle 2, 1.5 mg/kg (N = 1)) was 15,662 ng/mL, the Thalf ([1]; Cycle 2, 1.5 mg/kg (N = 1)) was 7.97 h and the Tmax ([1]; Cycle 2, 1.5 mg/kg (N = 1)) was 1.00 h. The AUC0-t ([1]; Cycle 2, 3.0 mg/kg (N = 1)) was 688,934 ng*h/mL, the Cmax ([1]; Cycle 2, 3.0 mg/kg (N = 1)) was 61,466 ng/mL and the Thalf ([1]; Cycle 2, 3.0 mg/kg (N = 1)) was 6.82 h. For the same substance, the Tmax ([1]; Cycle 2, 3.0 mg/kg (N = 1)) was 1.05 h, the AUC0-t ([1]; Cycle 2, 6.0 mg/kg (N = 3)) was 1,351,156 ng*h/mL and the Cmax ([1]; Cycle 2, 6.0 mg/kg (N = 3)) was 120,466 ng/mL. For the same substance, the Thalf ([1]; Cycle 2, 6.0 mg/kg (N = 3)) was 7.70 h, the Tmax ([1]; Cycle 2, 6.0 mg/kg (N = 3)) was 1.03 h and the AUC0-t ([1]; Cycle 2, 9.0 mg/kg (N = 3)) was 2,459,988 ng*h/mL. For the same substance, the Cmax ([1]; Cycle 2, 9.0 mg/kg (N = 3)) was 163,840 ng/mL, the Thalf ([1]; Cycle 2, 9.0 mg/kg (N = 3)) was 13.75 h and the Tmax ([1]; Cycle 2, 9.0 mg/kg (N = 3)) was 1.08 h. For the same substance, the AUC0-t ([1]; Cycle 2, 12.0 mg/kg (N = 7)) was 4,147,243 ng*h/mL, the Cmax ([1]; Cycle 2, 12.0 mg/kg (N = 7)) was 230,268 ng/mL and the Thalf ([1]; Cycle 2, 12.0 mg/kg (N = 7)) was 21.04 h. The Tmax ([1]; Cycle 2, 12.0 mg/kg (N = 7)) was 1.04 h, the “increase of mean Cmax and AUC0-t (systemic exposure) with the dose” value ([1]; dose range of 3.0 to 12.0 mg/kg, Cycle 1 and Cycle 2) was “dose proportional” and the “accumulation of AB-16B5 between Cycle 1 and Cycle 2” value ([1]; weekly IV infusion) was “No significant accumulation”. For the same substance, the “No Observable Adverse Effect Level (NOAEL)” value ([2]; Rhesus monkeys, weekly administration) was 100 mg/kg/dose, the “signs of overt toxicity” value ([2]; rhesus monkey, in vivo) was “did not result in any signs of overt toxicity” and the “hepatocellular vacuolation in the liver” value ([2]; rhesus monkey, in vivo, 100 mg/kg) was 2 animals. For the same substance, the “best overall response progressive disease (PD), number of subjects” value [3] was 6 subjects, the “best overall response progressive disease (PD), share of subjects” value [3] was 43% and the “best overall response stable disease (SD), number of subjects” value [3] was 8 subjects.

Source: patent publication US20240317884A1, “METHOD FOR ALLOWING IMMUNE CELLS INFILTRATION IN TUMORS” (Alethia Biotherapeutics Inc., priority 2021, published 2024)
